# Measured values as given in PMC6153280, “Roles of distal aspartate and arginine of B-class dye-decolorizing peroxidase in heterolytic hydrogen peroxide cleavage” (The Journal of Biological Chemistry, 2018).
# Assays:
# Asp143 = Asp143 (UniProt position 143, LSGFVDGTENP); assay: kinetics; details: 25 °C; 2 µM enzyme in 5 mM phosphate citrate buffer, pH 7.0, mixed with H2O2 in 100 mM phosphate citrate buffer, pH 3.0-8.0, or 100 mM glycine NaOH buffer, pH 8.0-10.0; ferric high-spin resting enzyme, folded, reacting with H2O2
# [1] = target: KpDyP double variant D143A/R232A (Klebsiella pneumoniae); assay: SEC-MALS; HPLC-SEC combined with multiangle light scattering; data not shown; conditions not given
# [2] = target: KpDyP variant D143A (Klebsiella pneumoniae); assay: as above
# [3] = target: KpDyP variant R232A (Klebsiella pneumoniae); assay: as above
# [4] = target: the molecule itself; assay: as above
molecule,measurement,setting,value
B-class dye-decolorizing peroxidase (KpDyP) (Klebsiella pneumoniae),pKa,Asp143,far below 4.0
KpDyP double variant D143A/R232A (enzyme),stoichiometry N,[1],2
KpDyP variant D143A (enzyme),stoichiometry N,[2],2
KpDyP variant R232A (enzyme),stoichiometry N,[3],2
"WT B-class dye-decolorizing peroxidase from Klebsiella pneumoniae (KpDyP) (enzyme, UniProt A0A0W8ATM9 1-299, looked up, B-class dye-decolorizing peroxidase (KpDyP), Klebsiella pneumoniae; codon-optimized DNA cloned into pGEX-6P1 with primers that run from the ATG start to the stop codon; about 35 kDa per subunit; One heme b per subunit; also called WT KpDyP; source: E. coli BL21 (DE3) pLysS, purified (GSTrap, on-column HRV 3C cleavage, SEC)) MSQVQSGILPEHCRAAIWIEANLKGDVNALREASKIFVDNVATFQAKFPDAKLGAVVAFGNNVWRQLSGGEGADELKDFPVYGKGLAPSTQYDLLIHILSARHEVNFSVAQAALAAFGDAIDVKEEIHGFRWVEERDLSGFVDGTENPAGEETRREVAVIKDGVDAGGSYVFVQRWEHNLKQLNRMSVPDQEMMIGRTKDANEEIDGDERPVTSHLSRVDLKEDGKGLKIVRQSLPYGTASGTHGLYFCAYCARLYNIEQQLLSMFGDTDGKRDAMLRFTKPVTGGYYFAPSLERIQAL",stoichiometry N,[4],2
